For experiment [1], the target named is PDE catalytic subunit (PDEα or PDEβ) of frog rod PDE (frog (Rana catesbeiana)). The experiment in a line: PDE activity on dilution (pH assay), fitted with equation (s5); frog ROS membranes at various concentrations of PDE (≤40 nM; PDE/rhodopsin taken as 1/270), in the light without GTP, 5 mM cGMP, room temperature.
The target is the same in experiment [2]. As to the kind of experiment: PDE activity on dilution (pH assay), fitted with equation (s5); purified PDE at diluted low concentrations (≤40 nM), in the light without GTP, 5 mM cGMP, room temperature; relative to trypsin-treated full activity.
Experiment [3] has the same target. The experiment in a line: co-purification (Mono Q, Superdex 200) with SDS-PAGE quantification; native PDE purified from frog ROS membranes to almost 100% purity; subunits quantified on Oriole-stained gels with bovine serum albumin as molar standard.

Several values for one entry are separate records, joined by “and”; a condition that tells them apart may be missing. Identical values can stand only once.

Turning to “native PDEγ of frog rod PDE (freed reversibly from the catalytic subunit) (from UniProt H1AAN5 1-87) (natural protein)”, the Kd is 0.04 to 0.06 nM and 0.054 nM in experiment [1]; 0.01 nM and 0.005 to 0.02 nM in experiment [2]. In addition, the molar ratio of 2PDEγ/PDEαβ in experiment [3] turned out to be 1.01.

For orientation: Kd means the free concentration of one partner at which half of the binding sites on the other are occupied at equilibrium, for simple one-to-one binding.

The record behind these values is publication PMC6510727.
